Series [1] deals with T1, Cas12i (wild-type, from CN111757889B).
T1 chain: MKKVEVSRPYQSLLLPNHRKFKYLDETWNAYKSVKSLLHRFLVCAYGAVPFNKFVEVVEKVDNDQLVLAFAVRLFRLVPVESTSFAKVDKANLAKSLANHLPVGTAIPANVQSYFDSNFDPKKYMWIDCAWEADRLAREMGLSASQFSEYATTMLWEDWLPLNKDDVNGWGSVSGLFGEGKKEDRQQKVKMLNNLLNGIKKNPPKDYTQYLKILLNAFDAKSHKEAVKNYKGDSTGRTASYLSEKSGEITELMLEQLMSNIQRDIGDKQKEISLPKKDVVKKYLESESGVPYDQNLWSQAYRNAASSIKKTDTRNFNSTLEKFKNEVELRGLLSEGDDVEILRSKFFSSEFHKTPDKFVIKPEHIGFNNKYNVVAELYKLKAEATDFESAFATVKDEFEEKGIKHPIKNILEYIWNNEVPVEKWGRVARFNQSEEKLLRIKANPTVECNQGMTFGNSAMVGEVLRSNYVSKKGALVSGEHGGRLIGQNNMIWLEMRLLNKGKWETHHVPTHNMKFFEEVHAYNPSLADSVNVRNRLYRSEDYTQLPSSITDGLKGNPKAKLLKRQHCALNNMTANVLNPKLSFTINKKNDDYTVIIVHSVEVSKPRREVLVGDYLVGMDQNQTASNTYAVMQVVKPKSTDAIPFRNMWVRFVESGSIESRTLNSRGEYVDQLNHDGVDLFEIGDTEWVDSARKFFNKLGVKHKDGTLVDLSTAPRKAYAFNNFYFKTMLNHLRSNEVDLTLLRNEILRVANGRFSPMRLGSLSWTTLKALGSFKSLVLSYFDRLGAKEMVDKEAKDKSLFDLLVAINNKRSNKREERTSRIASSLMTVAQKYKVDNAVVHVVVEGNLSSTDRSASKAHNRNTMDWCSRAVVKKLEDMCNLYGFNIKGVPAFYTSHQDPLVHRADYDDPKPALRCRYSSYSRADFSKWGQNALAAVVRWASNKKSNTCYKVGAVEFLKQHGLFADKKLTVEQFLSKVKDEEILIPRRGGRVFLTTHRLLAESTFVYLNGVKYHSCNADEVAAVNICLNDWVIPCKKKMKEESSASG
The series is described as follows: cell_activity; 293T indels, reference; PAM not stated. Here is the method: (§1) Plating: The 293T cell line was plated when the confluence reached 70-80%, and the number of cells seeded in a 24-well plate was 5*10\hat{ }5 cells/well.
(§2) Transfection: After 12-14 hours of plating, transfection was performed. 100 μl of Opti-MEM, 1.5 μl of PEI (Yisheng Bio, Polyethylenimine Linear (PEI) MW25000), 250 ng of the mutant clone plasmid from Example 2, and 250 ng of gRNA plasmid for targeting endogenous genes were added to each well of a 24-well plate. The mixture was incubated at room temperature for 20 minutes and then added to 293T cells for transfection. After transfection overnight, the medium was replaced with fresh medium and cultured for the next period.
(§3) DNA extraction, PCR amplification, and Sanger sequencing: After culturing for 72 hours, cells were washed with PBS, and then 100 μl of cell lysis buffer (Viagen, DirectPCR® Lysis Reagent (Cell)) was added for lysis to obtain a lysate containing genomic DNA. The genomic DNA was amplified in the region near the target sequence, and the PCR product was sent to a sequencing company for Sanger sequencing.

The target of another series is T2, Cas12i-30 (N295R,N260R).
T2 chain: T1 chain with N260R, N295R
Nature of the series: cell_activity; 293T indels, reference; editing >10%. On the procedure:
as §1, §2, §3

Substitutions are numbered along the chain they refer to.

B1: gRNA-TTR ; TTR target (ssRNA ; dsDNA)
RNA: AGAGAAUGUGUGCAUAGUCACACCAGUAAGAUUUGGUGUCUAU
DNA 1: CAGTAAGATTTGGTGTCTAT
DNA 2: ATAGACACCAAATCTTACTG
Take B1: the indel editing activity in series [1] was 1 fold of wild type.

B2: gRNA-HBG ; HBG target (ssRNA ; dsDNA)
RNA: AGAGAAUGUGUGCAUAGUCACACACAAGGCAAACUUGACCAAU
DNA 1: ACAAGGCAAACTTGACCAAT
DNA 2: ATTGGTCAAGTTTGCCTTGT
Take B2: the indel editing activity in series [1] is 1 fold of wild type.

B3: gRNA-HBB ; HBB target (ssRNA ; dsDNA)
RNA: AGAGAAUGUGUGCAUAGUCACACUAUGCAGAAAUAUUGCUAUUGCCU
DNA 1: TATGCAGAAATATTGCTATTGCCT
DNA 2: AGGCAATAGCAATATTTCTGCATA
For the molecule B3, in the series with Cas12i-30, the “relative indel editing efficiency” value is 1 fold of Cas12i-30.

These data come from patent US20260250651, “CAS12 PROTEINS AND USES THEREOF” (GUANGZHOU REFORGENE MEDICINE CO., LTD., published 2026).
